The values below are quoted from earlier work in PMC7527559.

pKd: −log10 of the molar value. Where two headings read alike, the source gives them in different places.

Data set [1] concerns the target RNA polymerase (Escherichia coli) (UniProt P0A7Z4).
For data set [2] the target is unchanged. The source holds these as a separate data set.

Chain of GreA (P0A6W5 whole entry): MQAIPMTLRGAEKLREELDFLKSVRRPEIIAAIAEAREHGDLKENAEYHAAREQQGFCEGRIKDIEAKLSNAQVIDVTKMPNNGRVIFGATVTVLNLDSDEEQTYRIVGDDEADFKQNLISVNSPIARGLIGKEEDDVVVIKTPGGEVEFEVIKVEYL
Chain of DksA (P0ABS1 whole entry): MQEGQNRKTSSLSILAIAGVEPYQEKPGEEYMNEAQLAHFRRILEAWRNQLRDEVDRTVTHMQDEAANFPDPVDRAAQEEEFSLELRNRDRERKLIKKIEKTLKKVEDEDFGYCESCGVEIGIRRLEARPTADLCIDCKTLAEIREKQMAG

As usually defined, the pKd is the Kd on a negative log10 scale, so that one unit is a factor of ten. Consider DksA (from UniProt P0ABS1), for which the pKd in data set [1] is 7.00.

As for GreA (from UniProt P0A6W5), the negative logarithm of the Kd (pKd) in data set [2] was 6.10.
